Test results: patent publication US7348140B1, “Clinical indications for genotyping polymorphic variants of G-protein coupled receptors” (Acadia Pharmaceuticals, Inc., priority 2001, dated 2008)

Assays:
[1] = biological target: Cholecystokinin B receptor, wild type (Leucine 224) (UniProt P32239); experiment: cell-based or functional assay
[2] = biological target: Cholecystokinin B receptor L224Q variant (Glutamine 224) (UniProt P32239); experiment: cell-based or functional assay
Chain of Cholecystokinin B receptor L224Q variant (Glutamine 224) (P32239 whole entry L224Q): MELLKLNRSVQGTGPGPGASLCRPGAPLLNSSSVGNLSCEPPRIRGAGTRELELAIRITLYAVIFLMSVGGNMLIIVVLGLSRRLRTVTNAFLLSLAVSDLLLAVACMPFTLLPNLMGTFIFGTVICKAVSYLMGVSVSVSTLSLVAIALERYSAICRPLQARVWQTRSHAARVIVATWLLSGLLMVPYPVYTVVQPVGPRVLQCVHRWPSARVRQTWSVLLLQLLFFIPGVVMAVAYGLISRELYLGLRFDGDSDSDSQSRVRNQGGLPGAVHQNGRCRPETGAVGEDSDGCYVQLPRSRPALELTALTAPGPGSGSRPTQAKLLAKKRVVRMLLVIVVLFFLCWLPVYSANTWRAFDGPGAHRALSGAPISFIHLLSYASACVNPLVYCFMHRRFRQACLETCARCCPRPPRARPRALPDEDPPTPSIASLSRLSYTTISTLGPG

Chain of Cholecystokinin B receptor, wild type (Leucine 224) (P32239 whole entry): as the sequence (P32239 whole entry L224Q) above, with Q224L counted along it

Ave -Log EC50, R-SAT functional potency [1]: 8.71 -log EC50
Ave -Log EC50, R-SAT functional potency [2]: 9.78 -log EC50
FOLD (shift in functional potency against wild type; negative = gain of function) [2]: -11.7 fold
Substance: Gastrin (from UniProt P01350 76-92) (peptide)
